Substitutions are numbered along the chain they refer to.
B1: D21 (antibody, human IgG4, V domains shown)
VH: QVQLVQSGAEVKKPGASVKVSCKASVYSFTGYTVNWVRQAPGQRLEWMGLINPRNGGTTYNQKFKGRVTLTIDKSASTAYMELSSLRSEDTAVYYCAWSYYSNPYAMDYWGQGTLVTVSS
VL: EIVMTQSPATLSVSPGERATLSCKASQNVHTRVAWYQQKPGQAPRLLIYLASDRRTGIPARFSGSGSGTEFTLTISSLQSEDFAVYYCLQHWNYPLTFGQGTKVEIK
notes: also called optimized anti-CD40 antibody D21
B2: D49 (antibody, human IgG4, V domains shown)
VH: B1 VH with R54Y, T59S, W98S, Y100P
VL: B1 VL with N93T
notes: also called optimized anti-CD40 antibody D49
B3: D42 (antibody, V domains shown)
VH: B1 VH with N52V, R54Y, W98S, Y100R
VL: B1 VL
notes: also called optimized anti-CD40 antibody D42
B4: D26 (antibody, human IgG4, V domains shown)
VH: B1 VH with R54Y, G57R, W98S, M107N
VL: B1 VL
notes: also called optimized anti-CD40 antibody D26
B5: D47 (antibody, human IgG4, V domains shown)
VH: B1 VH with R54Y, N55T, W98S, M107S
VL: B1 VL with N93T
notes: also called optimized anti-CD40 antibody D47
B6: D5 (antibody, V domains shown)
VH: EVQLQQSGAELVSPGVSVKISCKGSGYTFTDHGMHWVKQSHAKSLEWIGVISTSYGVATYNQKFKGKATLSVDKSSSTAYLELARLTSEDSAIYYCARRDSKSPFDYWGQGTTLTVSS
VL: QIVLTQSPAIMSASPGEKITITCSASSSISSNYLHWYQQKPGFSPKLLIYRTSNLASGVPARFSGSGSGTSYSLTISSMEAEDAATYYCHQYHRSPLTFGAGTKLELK
notes: Full-length chimeric antibody: mouse variable domains with a human IgG1 or IgG4 heavy chain constant domain and a human kappa light chain constant domain; also called anti-CD40 antibody D5
B7: D1 (antibody, V domains shown)
VH: EVQLQQSGPDLVKPGASMKISCKASVYSFTGYTVNWVKQSHGKSLEWIGLINPYNGGTTYNQKFKGKATLTIDKSSTTAYMELLSLTSEDSAVYYCASSYYSNPYAMDYWGQGTSVTVSS
VL: DIVLNQSQKFMSTSVGDRVSITCKASQNVHTAVAWYQQKPGQSPKALIYLASDRRTGIPDRFTGSGSGTDFTLTIDNVQSEDLADYFCLQHWNYPLTFGAGTKLELK
notes: Full-length chimeric antibody: mouse variable domains with a human IgG1 or IgG4 heavy chain constant domain and a human kappa light chain constant domain; also called anti-CD40 antibody D1; mouse antibody D1
B8: D2 (antibody, V domains shown)
VH: EVHVKQSGAELVKPGASVKLSCTASGFNIKDAYMHWVKQRPEQGLEWIGRIDPANGNTKYDPKFQGKASITTDTSSNTAYLQLSSLTSEDTAVYYCTPNYYGSRYPFAYWGQGTTVTVSS
VL: DIVLTQSPAIMSASPGEKVSITCSASSSVSYMHWFQQKPGTSPKLWIYSTSNLASGVPARFSGSGSGTSYSLTISRMEADDAATYYCQQGSSYPLTFGAGTKLELK
notes: Full-length chimeric antibody: mouse variable domains with a human IgG1 or IgG4 heavy chain constant domain and a human kappa light chain constant domain; also called anti-CD40 antibody D2
B9: D3 (antibody, V domains shown)
VH: B8 VH with H3Q, V4L, K5Q, A32S, S69T, T72A, T97V, S103A, R104A
VL: B8 VL with T5I, S20T, L45V, S62G, D80E
notes: Full-length chimeric antibody: mouse variable domains with a human IgG1 or IgG4 heavy chain constant domain and a human kappa light chain constant domain; also called anti-CD40 antibody D3
B10: D7 (antibody, V domains shown)
VH: QIQLLQSGAELVKPGASVKLSCTASGFNIKDAYMHWVKQRPEQGLEWIGRIDPANGYTKSDPKFQGKATITSDTSSNTAYLQLSSLTSEDTAVYYCAPNYYGSRYPFAYWGQGTLVTVSS
VL: B8 VL with D1Q, S20T, L45I, S49F, D80E, S92T
notes: Full-length chimeric antibody: mouse variable domains with a human IgG1 or IgG4 heavy chain constant domain and a human kappa light chain constant domain; also called anti-CD40 antibody D7
B11: D6 (antibody, V domains shown)
VH: QVQLQQSGAELVRPGVSVKISCKGSGYTFTDHAIHWVKQSHARRLEWIGAISTNYGAATYNQKFKGKATMTVDKSSSTAYMELARLTSEDSAIYYCARRGSHGDWFAYWGQGTLVTVSA
VL: B8 VL with V3E, S20T, A59V, R76S, D80E, Q88H, G90Y, S91H, S92R, Y93S
notes: Full-length chimeric antibody: mouse variable domains with a human IgG1 or IgG4 heavy chain constant domain and a human kappa light chain constant domain; also called anti-CD40 antibody D6

Target: T1, human CD40 extracellular domain (recombinant) (human, UniProt P25942 21-193)
T1 construct: Extracellular domain expressed in 293F cells; also called hCD40; CD40-His; not shown: tag (His, Avi-His, mouse Fc or human Fc)
T1 sequence (P25942 21-193): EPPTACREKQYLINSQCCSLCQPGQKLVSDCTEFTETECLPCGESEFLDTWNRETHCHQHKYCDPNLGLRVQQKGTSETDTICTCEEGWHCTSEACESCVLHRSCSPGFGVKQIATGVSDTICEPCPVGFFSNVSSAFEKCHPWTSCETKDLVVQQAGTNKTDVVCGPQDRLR
Experiment: ELISA, plate coated with recombinant human CD40 extracellular domain, antibody (human IgG4 format) in serial dilution, anti-human IgG-HRP, OD450
Procedure: (§1) ELISA Binding Assay: The selected monoclonal full-length antibodies D1, D2, D3, D5, D6, or D7 were subjected to binding assays with CD40 extracellular domain of different species, respectively. The assay was designed to identify full-length antibodies that cross-reacted with CD40 of different species. Briefly, the human or Rhesus monkey CD40 prepared in example 1 was dissolved in PBS and coated on […] with 0.1 μg/well followed by incubation at 4° C. overnight. The 96-well plates were washed with TBST before adding antibodies, blocked with 5% milk for 1-2 h at 37° C., and washed again with TBST. Firstly, each antibody sample was diluted to 10 μg/mL, and then serially diluted at a 1:3 ratio. 100 μL of serially diluted antibodies were added to each well and incubated for 1 h at 37° C. After washing with TBST for 6 times, 100 μL of the secondary antibody (goat anti-human IgG-HRP (Sigma. A8667)) was added to each well and incubated for 1 h at 37° C. After washing with TBST for 3 times, TMB was added with 100 μL/well and incubated for 10-20 minutes at 37° C. 2M H₂SO₄ was used to stop the reaction and plates were read for the absorbance at 450 nm. The ELISA results were then analyzed and the binding curves were generated by PRISM.
(§2) The biding affinity of the optimized full length CD40 antibodies with human or rhesus monkey CD40 was evaluated by Elisa according to the corresponding protocol as described in Example 2, and ASKP1240 was used as control.

| Binder | EC50 (read off the curve) [µg/mL] |
| --- | --- |
| B1 | ~0.2 |
| B2 | ~0.2 |
| B3 | ~0.2 |
| B4 | ~0.2 |
| B5 | ~0.2 |

Target: T2, human CD40 on cells (human, UniProt P25942 21-277)
T2 sequence (P25942 21-277 limits assumed): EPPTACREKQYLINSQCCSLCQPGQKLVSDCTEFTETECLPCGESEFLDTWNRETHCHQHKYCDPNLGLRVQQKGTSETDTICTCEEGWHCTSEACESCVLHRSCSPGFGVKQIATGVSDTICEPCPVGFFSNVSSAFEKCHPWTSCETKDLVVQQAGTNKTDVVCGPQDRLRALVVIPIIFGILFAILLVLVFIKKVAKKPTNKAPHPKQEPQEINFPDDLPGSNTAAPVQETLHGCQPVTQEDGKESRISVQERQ
Experiment: cell-based or functional assay

| Binder | IC50, HEK-Blue CD40L NF-κB activation assay (SEAP), antibody as human IgG4 [µg/mL] |
| --- | --- |
| B1 | 0.0102 |
| B2 | 0.0112 |
| B3 | 0.00962 |
| B4 | 0.00908 |
| B5 | 0.0114 |

Target: T3, human TNFRSF11A (human, UniProt Q9Y6Q6 30-212)
T3 construct: Bought protein coated on the ELISA plate; also called TNFRSF11A (Sino biological, 16078-h08h)
T3 sequence (looked up): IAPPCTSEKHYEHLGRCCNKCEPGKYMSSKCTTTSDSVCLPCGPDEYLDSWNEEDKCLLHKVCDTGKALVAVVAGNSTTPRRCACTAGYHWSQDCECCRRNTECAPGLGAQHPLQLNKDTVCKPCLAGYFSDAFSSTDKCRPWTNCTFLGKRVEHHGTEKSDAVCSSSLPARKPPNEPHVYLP
Experiment: ELISA; protein coated, antibody titrated, anti-human IgG-HRP
Procedure: (§3) The cross-reactivities between anti-CD40 antibodies and the protein homologous with CD40 were detected. It was well known that there is high sequence homology among TNFR superfamily members. When compared with CD40 sequence. TNFRSF11A (38.95% homology) and INFR2 (37.20% homology) are with the highest homology. The cross-reactions between the two proteins and anti-CD40 antibody were detected by ELISA. respectively. Briefly, human TNFRSF11A (Sino biological, 16078-h08h), human TNFR2 (Sino biological, 10417-h08h) or the human CD40 extracellular domain protein prepared in example 1 was coated on ELISA plate and incubated at 4° C. overnight, respectively. After serial dilution, the optimized full-length anti-CD40 antibodies were added into 96 well plates and incubated respectively. After washing with TBST solution, the anti-human IgG-HRP antibody was added and incubated at RT. After washing with PBST, TMB was added into each well for development. Plates were read for the absorbance at 450 nm.

| Binder | binding result |
| --- | --- |
| B3 | no binding (tested: 10 µg/mL) |
| B5 | no binding (tested: 10 µg/mL) |

Target: T4, human TNFR2 (human, UniProt P20333 23-257)
T4 construct: Bought protein coated on the ELISA plate; also called TNFR2 (Sino biological, 10417-h08h); INFR2
T4 sequence (looked up): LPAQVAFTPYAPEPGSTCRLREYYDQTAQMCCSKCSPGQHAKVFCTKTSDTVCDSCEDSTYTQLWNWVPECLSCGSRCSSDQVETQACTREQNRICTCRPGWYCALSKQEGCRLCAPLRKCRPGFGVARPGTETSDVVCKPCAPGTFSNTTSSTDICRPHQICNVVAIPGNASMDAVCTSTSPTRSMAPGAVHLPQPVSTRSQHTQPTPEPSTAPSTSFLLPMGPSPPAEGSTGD
Experiment: as above
Procedure: as §3

| Binder | binding result |
| --- | --- |
| B3 | no binding (tested: 10 µg/mL) |
| B5 | no binding (tested: 10 µg/mL) |

Target: T5, Rhesus monkey CD40 extracellular domain (recombinant) (Rhesus monkey, UniProt F6SNI1 21-193)
T5 construct: extracellular domain; also called RheCD40
Experiment: ELISA, plate coated with recombinant rhesus monkey CD40 extracellular domain, antibody (human IgG4 format) in serial dilution, anti-human IgG-HRP, OD450
Procedure: as §1, §2

| Binder | EC50 (read off the curve) [µg/mL] |
| --- | --- |
| B1 | ~0.1 |
| B2 | ~0.1 |
| B3 | ~0.1 |
| B4 | ~0.1 |
| B5 | ~0.1 |

Target: T1, human CD40 extracellular domain …
Experiment: ELISA; CD40 extracellular domain coated 0.1 µg/well, antibody titrated from 10 µg/mL 1:3, anti-human IgG-HRP
Procedure: as §1

| Binder | EC50 [µg/mL] |
| --- | --- |
| B6 | 0.274 |
| B7 | 0.236 |
| B8 | 0.193 |
| B9 | 0.224 |
| B10 | 0.261 |
| B11 | 0.176 |

Target: T5, Rhesus monkey CD40 extracellular domain …
Experiment: as above
Procedure: as §1

| Binder | EC50 [µg/mL] |
| --- | --- |
| B6 | 0.627 |
| B7 | 0.227 |
| B8 | 0.473 |
| B9 | 0.0743 |
| B10 | 0.133 |
| B11 | 0.243 |

Target: T1, human CD40 extracellular domain …
Experiment: SPR, Biacore 8K; antibody on CM5 chip, hCD40 at various concentrations
Procedure: The binding affinity of the optimized anti-CD40 antibodies with human […] was characterized using Biacore 8K (GE). Anti-CD4 (antibodies were stabilized on sensor chip CM5 The affinities for hCD40 at various concentrations were measured. Using the SPR technology, the association and dissociation rates were measured, and binding affinity was determined.

| Binder | Kd [nM] | koff [s⁻¹] | kon [M⁻¹ s⁻¹] |
| --- | --- | --- | --- |
| B1 | 2.54 | 0.000606 | 238000 |
| B2 | 1.5 | 0.000295 | 196000 |
| B3 | 1.26 | 0.000277 | 221000 |
| B4 | 2.74 | 0.000596 | 218000 |
| B5 | 1.59 | 0.000303 | 191000 |

Target: T2, human CD40 on cells
Experiment: cell-based or functional assay
Remark: another data set of the same source

| Binder | IC50, HEK-Blue CD40L NF-κB activation assay (SEAP), Fc-3*G4S-CD40L stimulus [µg/mL] |
| --- | --- |
| B6 | 0.0142 |
| B7 | 0.0215 |
| B8 | 0.0171 |
| B9 | 0.0224 |
| B10 | 0.017 |
| B11 | 0.00712 |

— US20240343817A1 (STAIDSON BEIJING BIOPHARMACEUTICALS, published 2024)
